This data set concerns the molecule itself. The experiment in a line: SEC-MALS; 25 °C, Superdex 200 Increase 10/300 GL, ~2 mg/mL, 100 μL injected, 25 mM Tris-HCl pH 8.0, 150 mM NaCl.

B1: periplasmic part of MreC (residues 36-367) from Escherichia coli (domain or fragment, E. coli, UniProt P16926 36-367, looked up)
chain: SQIRTYMDTAVSPFYFVSNAPRELLDGVSQTLASRDQLELENRALRQELLLKNSELLMLGQYKQENARLRELLGSPLRQDEQKMVTQVISTVNDPYSDQVVIDKGSVNGVYEGQPVISDKGVVGQVVAVAKLTSRVLLICDATHALPIQVLRNDIRVIAAGNGCTDDLQLEHLPANTDIRVGDVLVTSGLGGRFPEGYPVAVVSSVKLDTQRAYTVIQARPTAGLQRLRYLLLLWGADRNGANPMTPEEVHRVANERLMQMMPQVLPSPDAMGPKLPEPATGIAQPTPQQPATGNAATAPAAPTQPAANRSPQRATPPQSGAQPPARAPGGQ
notes: Cell shape-determining protein MreC, E. coli BL21(DE3) strain, residues 36-367, lacks the N-terminal transmembrane region; holds the coiled coil, two six-stranded beta-barrels and the pro-rich region; the cDNA came from strain BL21(DE3); pET21b usually adds a C-terminal His6 (surmised); About 37 kDa per chain as printed; also called truncated MreC; major periplasmic domain of MreC; source: E. …
Turning to B1, the stoichiometry N (usually a count of units in the complex or per binding partner) came to 2.
